The source of these data is patent US20250179161A1.

This experiment deals with Amyloid Beta (Aβ) 1-42 (human). In words: cell-based or functional assay.
Amyloid Beta (Aβ) 1-42 (human), sequence (peptide, as listed by the source): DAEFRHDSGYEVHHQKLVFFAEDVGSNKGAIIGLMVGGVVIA

Consider human IgG isotype control antibody, for which the Avg. pg/mL Aβ1-42 left after ex vivo phagocytosis, APP/PS1 mouse brain sections with primary murine microglia, mean amounted to 92600 pg/mL; the Aβ1-42 (pg/ml) left after ex vivo phagocytosis, human AD brain sections with primary murine microglia was found to be 185000 pg/mL; the Mean (Aβ spots per neuron), isotype control at 1:50 mAb:Aβ42, soluble Aβ 1 µM, rat hippocampal neurons (Aβ spots per neuron) turned out to be 58.7.
